Measured values: a protein production outcome set (Wang et al. 2014)

Test: label from the status in PepcDB records
In the case of “MRWLNRHKFLPFLAWLPQQSRASVGRDALVGLSGAILALPQSIAYALIAGLPPEYGLYAAIVPVLIACLWGSSWHLICGPTAAISIVLYVSVSPLAVPASQDYIMLILLLTFIAGVFQLLLGMMRFGALVNFVSHSVVLGFTLGAAVVIALGQMPNLLGIDLPSQTTALKSLSAVLEHRGELDKPSLMLGLLTLTLGIGLKAWVPRWPTLLIALVSSSLLVWLWPAMFGHVRVVSAFVGHLPPFSPLPLDLELILKLLPTAVAVGMLGLVNSLSIARSLSARSQQMLNANQEVRAQGLSNMVGSLFSGYLSAGSFTRAALSYEAGARSPLAGVFSALWVALFAVAGASLVSHIPIPAMAASILLICWGLVDRRGIRALLRVSRAEFFVMALTCLATLLLELQTAIYAGVLASLFFYLKRTSQPRVQQWREGDEDVLRVGGSIFFGASHYLQTRLQRTEGLRVVIDAQQINFIDYSGVEMLHQEARRLGQQGRVLVLRNARPLVIEELHKLEGPENCPILFED”, the protein production is reported as “failed”. With “MRWNICVVGAGKIGQMIAALLKTSSNYSVTVADHDLAALAVLNRMGVATKQVDAKDEAGLAKALGGFDAVISAAPFFLTPIIAKAAKAAGAHYFDLTEDVAATNAVRALAEDSQT” the protein production was “not failed”. In the case of “MRWRSSRLGRAPLLGALAILWFAVLLPRGGTAGAGPGARGIRRSTGVCAGSRPRPAALLRRSAKVVAGFSVFGCPATAFESCVLSPAPSNSLASVFLLCLLPGLMEETIHTVSTEAFALQAEDPDHTILDVRPIAAYNGWPLQDESRSGHVPGAKSLPLQWTQYMDWVEVLDEKGLSQNAPVTVYGYTADAAAEMADKLSRLGFEAVGVYDGFLEDWAPDPDRPLQRMERYQQLVYPEWVQRLRTGETPPGMRGDDHVLCHAHFGYRQDYEDGHIPGAIPLNTNALESPETWNRRSPEELKSALEDHGIRHDTTVVLYGRFSYPTYDQDDPAQSAGHLGAMRCAALMLYAGVEDVKILNGGISTWESAGYDVSTDDVEPAPVDDFGAEVPAHPEYMLTLDEAKALLEADDGDLVSVRSWAEFIGERSGYHYIDKTGRIPGAVFGNCGSDAYHMENYRNFDYTTREFSEIAGKWAEMGITPDKHIAFYCGTGWRGSEAFMNAYLMGWPNISVYDGGWYEWSSHPDTETATGVPENDVPA”, the protein production is reported as “failed”. With “MRYAVVLYPCSSFHHESVRPSRFPAPRRHPLLHRLPLAVARRLAGPGTADHFRERAGRGGAASRQRRRVPRRGRRRAAVGPQGGRRLSRAENPQAAAARPHRAGQGAGAQRPSLSAAMNAPQRKIIHVDCDCFYAAIEMRDDPSLRDVPLAVGGRPETRGVVATCNYIARRYGVHSAMSSARALRLCPELLIVPPDMARYRLASQQIMAIYQRYTEVIEPLSLDEAYLDVTGQPHERGSATLMAEAIRRQIRDEVGITASAGIAPNKFLAKVASDWNKPDGQYLIRPRDIDAFVAVLPVEKIHGVGRVTAERLHRLGIRSCGDLRRWSPADLFRHFGSFGERLLALAHGRDERPVSTDRSRKTISVEETYAQDLPDLASCLSKLPELVDRLQARLARSGSPAFKGLSVKLKFDDFSQTTVEQPGYALSMAAFGQLLRAGHARGARPARLLGVGVKLADDFDLPRQLRLFGRDGRPLPDSAPPAEAPPGGPEADSAA” the protein production was “failed”. For “MSAATPQPPAPHVVLGSGPAGTALARELVRRGHPVRLVDRRATGPAVEGVERFPADVGTADGARAAIRDAAVVYHCVNVAYHLQVEVMPRVQEAVLAAVEESGARLVVLDTVYPYGETGGAVMTEDSPWKATSRKGRMRAELDERYLAAHRSGRARVVLGRSADFVGPGVLNSSLGAAVFPGALTGGDVVAMGNIDLPHSYTGIEDVAAALATLGERPDGDGRVWHLPTAPAVSTREIHALIEKRVGRPLNVVVLERPRPFGPFDEQLMAEYEEMFYQHTEAQIMDSGAFERFFEAAPTPLADTLDATVTWYEAWLRSR”, the protein production was “failed”. In the case of “MSAEATPESTLPGTAAETSPDNPWPLQLLSRKLKAHIERAPAAWIEGQVIELNRRGGNAFLTLRDVDAEISLPASVWSTVLDRQKVPLERGSRVVALVKADFWVKTGRLNMSVKDIRPVGLGDLLARIERLRQALAAEGLFADSRKRKLPLLPHRIGLITGRESDAKKDVMRNAALRWPAVEFDVREVAVQGNTAVSQIIAALKRLDADPHVDVIVLARGGGALEDLLPFSNEDLIRAVSAATTPVVSAIGHEADRPILDDVADLRASTPTDAAKRIVPDVAEELAMVRQARDHLRRSISRMVDRETDRLHALRSRPVLASPASMVDARSEDIHRLQRRTHSAVSTAVVRALDQVHHLRAQVRALSPQKTLDRGYAVVQLVGEDQAGHHVVSSPDEAPDGTPLSIRVAEGRFRAVSAGAGQLVEH”, the protein production is reported as “failed”. For “MSAERSRWLQCLGLPATADAIAIKTAYRQLARQWHPDCNPDPQATARFQEIQIAYERLLVLQESATAQPVPQAPPADAALIALKRQFQPQLQDLLADGRWAKAIALTEALQQRLPDDWEVRQWLAICYLRQGQALLVQQQRQQAIVYFEKARRTDPHNPRLQQEIQASHRLASARRA”, the protein production was “failed”. For “MSAGLVQAAYIVAALFFIMSLAGLSKQESARNGNYYGIAGMAIALIATIFSPDAQGFGWIIIAMAIGGAIGIFYAKKVEMTEMPELVAILHSFVGLAAVLVGYNSYLDAPEAATHAEHVIHLVEVFLGVFIGAVTFTGSIVAFGKLRGVISSSPLNLPHKHKMNLAAIVVSTLLMIYFVKADGSMFALIVMTLIAFAFGYHLVASIGGADMPVVVSMLNSYSGWAAAAAGFMLANDLLIVTGALVGSSGAILSYIMCKAMNRSFISVIAGGFGQEIIISSDEEQGEHRETTAEEVAEMLKNSKSVIITPGYGMAVAQAQYPVHEITDALRSQGIEVRFGIHPVAGRLPGHMNVLLAEAKVPYDIVLEMDEINDDFSETDTVLVIGANDTVNPAALEDPNSPIAGMPVLEVWNAKNVIVFKRSMNTGYAGVQNPLFFKENTSMLFGDAKESVEAIFKAL”, the protein production was “not failed”. In the case of “MSAIDCIITAAGLSSRMGQWKMMLPWQQGTILDTSIKNALQFCSRIILVTGYRGNELHERYVNQSNITIIHNPDYAQGLLTSVKAAVPAVQTEHCFLTHGDMPTLTIDIFRKIWSLRNDGAILPLHNGIPGHPILVSKPCLMQAIKRPNITNMRQALLMGAHYSVEVENAEIILDIDTPDDFITVQKRYTKI”, the protein production is reported as “failed”. In the case of “MSAIDRGSGSSMEEPERPEGPLADADGRESVTDHQDTTAADTPEDATTGSAARSETGAAPDTAQAASAPSAAAAPASEPAASAAEQRDASHEAPAPGSRETPPHPAPRPAPFAPQSHAPHPAWGPPAPDQATARHGAQAYPGPEAPQPAPGRPGPPPAGGVPAGAAQGAWQERPAQHDQPNSPTGAWAVPPSPGGFFPPTGGFPTLHGSSPFEGAPPPGKPQRSGRVVLIAAVTALITSLIVGPAASVATAYFLSEQVAANPAATSAASGDVTKVAAKALPSVVSIATAEGGGSGFIIRDDGLIVTNNHVVSDAQELTVLFHDGSQASATIVGTDPVSDLAVIRAQGVSGLTPASLGDSDQVEVGAEVVAIGAPLGLSGTVTSGVVSAVERPVNTGVSGQQDSPLLPSPDEEEPQATTSTVIDAIQTDAPINPGNSGGPLVNMNGEVIGINTAIATTSGNFMSQSGSIGLGFAIPINQAKPIIEELINTGKATYAAIEASVTVAEDGPGAELVEVNRGGAADQAGLRKGDVIIRIEDRMVTDPNVLIAEIRSHRPGDTVTITYQRGGQTAQTTVTLAAQSLDN”, the protein production is reported as “failed”. In the case of “MSAKSKQYFNIFVFIISLIFFDQLSKYLVAKYVKLGSIYFSFFDDFFRIIHVRNTGILFSMGSNIHYSLKKIFFLAMPIFILIFVFYLSLKERNCIARISLLLIFSGGVGNVIDRLFRPSGVVDFLDLKFYGIFGLDRWPTFNFADSYVVIGMILFLVYDFFIKRKVLNK”, the protein production is reported as “failed”. For “MSALEPDDPRSVGEYRLLGRLGAGGMGRVFLGRSPGGRLVAVKVVHAELLRRPEFRDRFRREVQAARMVSGAFTAPVVDADPDAPLPWLVTSYIAGPSLEQAVAERGPFDPQAVLTLAAGLAEALVSIHAAHLVHRDLKPSNVLLAEDGPRVIDFGIVRSVDADSLTGSGHMAGSPGFMSPEQVNGDEVTWASDVFCLGAVLAFAATGTNPFGAGPTPALLYRVVHNAPDVAAVADPALRSLIADCLAKDPAHRPAPREILARIGPLGGESATALPHAQQWTPAARPTRADAVPTRIVPPVAAPPAHQHTRVDTSPAQVYPPAPAPADVRPTATGDGGRRSRRAFLFSGAGALAALGVGTGFWLNRPADPDPAEGSAPAPSPSSAPSPPPGPVGLWPLDEASGQVARDTAGGHDGTVTGVAWQGAGEGAAFDGTGSQIVTAGPVLQTGAGRSFTVAAWVRLSAVPGVFATAVSQDSADASGFYLQYSSEDQGWAFARPGLRAVGRTAPAAHVWTHLTGVCDGPARKLHLYVNGVQEAVVEDTGPAPATGAFMIGRASFDGQPRDFFPGAIRDVRAFDRALGPARVAQLAQLG”, the protein production was “failed”. In the case of “MSALREALRDLPDAVFADVLESEDEYLLVLDLPGVTAETIDVTVEGGRLRIDGQRTKDVPGEFTFVREDRSVFLDAELPLPPDTTGQGGEGTVENGVLELRLPKATAAPSTTIPIDGD”, the protein production is reported as “failed”. In the case of “MSANDKLTILWTTDNKDTVFNMLAMYALNSKNRGWWKHINIILWGASVKLVANDTQVQTEILEMLQSGITIEACQDCCENFGVASIITNLGITVRYMGIPLTEYLKNGEKILSI”, the protein production is reported as “not failed”. With “MSANMHIFENPSALAEALADDVGARLAAAIAARGTASLAVSGGSTPKAFFRSLSRRELDWSKVTVTLVDERFVPPENDRSNHRLVADNLLKDGAAEARFVPLYQAAETAEAAAAIASGRTASLGAPLDVVVLGMGTDGHTASFFPGGTRLEEALDPTTPRGVITMEAEGAGEPRLTFTFSSLQDAGYLVLHIEGSGKKEVLAQAEASGDEAEMPIRAMLRRAASPLQIYWAP” the protein production was “failed”. For “MSANNTAKNMHPETRAVGSETSSLQASQDEFENLVRNVDVKSRIMDQYADWKGVRYRLGGSTKKGIDCSGFVQRTFREQFGLELPRSTYEQQEMGKSVSRSNLRTGDLVLFRAGSTGRHVGIYIGNNQFVHASTSSGVIISSMNEPYWKKRYNEARRVLSRSLEHHHHHH”, the protein production was “not failed”. With “MSAQFMTTVPVVLYLALSFGVALWARGRTAEGGSAKDIIEEYYIGGRSMGGFVLAMTIIASYTSAGSFVGGPGVAYRLGLSWVLLAMIQVPTTFLTLGVLGKRFAIVARRAGAVTLTDYLLARYRSHTVVILCSAALLVFFMAAMLAQFIGGARLFQTVTGYPYVVGLALFGVTVVLYTAVGGFRAVVVTDAVQGIVMVVAVVVVLLAVIDAGGGMTQCIATLKAIDPGLITPTGPGDAVPQPFMLSFWVLVGLGVLGLPQTTQRCMGYRDSRAMHDAMIIGTLLIGFMILCAHLAGTLGRAVLPDLPAGDLAMPSLIVQLLSPFWAGVFIAGPLAAIMSTVDSMLLLASAAIVKDLYVRYRLGGDTSRLRPVTMKRMSVASTAVIGVLVFVAAMEPPDLLVWINLFAFGGLEAVFLWPLVLGLYWRRGNATGAIASILSGVTAFVWLTIAKPDMGGIHAIVPTTLLSLVMFVAGSLAGRPSGREVDALFGGERS” the protein production was “failed”. With “MSASGLLVEKSGPLSLIQDFGRFGLAHIGITQGGPVDDYAYSWANHLLGNRVNCSAIEITLGNACFIALQDCHLAICGGDLNASVDGHPIANWSDFSIKKGQKLQFGMAKNGLRAYLAVKGGFNVPEHLGSSSTVLREALGGLEANGNALKAGDVLPFDAHSLPNHKPRIMTFRFKPDYNLPITLRVIEGYQCDDFSVEAKEKFYSGSFAISPDSNRMGYRLEGNTVKPPYDGILSEGIALGAIQIPHDGNPIVLLNDHQTIGGYPKLGCVARIDLPRLAQAKPGQKVRFVKGDRQGLQDVWCQWAQFFGY” the protein production was “failed”. For “MSASIRDAGVADLPGILAIYNDAVGNTTAIWNETPVDLANRQAWFDTRARQGYPILVASDAAGEVLGYASYGDWRPFEGFRGTVEHSVYVRDDQRGKGLGVQLLQALIERARAQGLHVMVAAIESGNAASIGLHRRLGFEISGQMPQVGQKFGRWLDLTFMQLNLDPTRSAP”, the protein production was “not failed”.
